Measurements reported in the RNAGym collection of RNA variant scans (doi:10.1073/pnas.2313332121).

B1: TPR t1 (parent)
chain: GACCAAUCUGCCCUCAGAGCUCGAGAACAUCUUCGGAUGCAGAGGAGGCAGGCUUCGGUGGCGCGAUAGCGCCAACGUCCUCAACCUCCAAUGCAUCCCACCACAUGAUGAUGCCUGAAGAGCCUUGGUUUUUUG

Variants of: B1
Assay: polymerase ribozyme fitness, log enrichment relative to wild type (log ratio); higher = more active; in vitro selection for triplet polymerase activity
How it was run: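 After PCR construction and transcription, each subunit's mutant library from a heterodimeric triplet polymerase ribozyme was annealed with a biotinylated primer, the partner subunit and triplets. Incubation was frozen, at −7 °C, and extended constructs were gel-excised, bound to streptavidin beads and amplified by RT-PCR, in one selection round done in triplicate. Fitness is the logarithm of a genotype's enrichment divided by that of the wild type, from inverse-variance-weighted replicate averages of Illumina-sequenced inputs and outputs. The base of the logarithm is 2, and genotypes needed ≥10 input reads and ≥1 read per output.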

Variant	polymerase ribozyme fitness (log ratio)
GACCAAUCUGCCGUCAGAGCUCGAGAACAUCUUCGGAUGCAGAGGAGGCAGGCUUCGGUUGCGCGAUAGCGCCAACGUCCUCAACCUCCAAUACAUCCCACCAUAUGAUGAUGCCUGAAGAGCCUUGGAUUUUUG [C13G G60U G93A C104U U129A]	-4.29
GACCAAUCUGCCGUCAUAGCUCGAGAACAUCUUCGGAUGCAGAGGAGGCAGGCUUCGGUGGCGUGAUAGCGCCAACGUCCUCAACCUCCAAUCCAUCCCACCACAUGAUGAUGCCUGAAGAGCCUUGGUUUUUUG [C13G G17U C64U G93C]	-4.19
GACCAAUCUGCCGUCAGAGCUCGAGAACAUCUUCGGAUGCAGAGGAGGCAGGCUUCGGUGGCGCGAUAGCGCCAACGUCCUCAACCUCCAAUGCAUCCCACCACAUGAUGAUGUCUGAAGAGCCUUGGUUUUUUG [C13G C114U]	-2.83
GACCAAUCUGCCGUCAGAGCUCGAGAACAUCUUCGGAUGCAGAGGAGGCAGGCUUCGGUGGCCCGAUAGAGCCAACGUCCUCAACCUCCAAUGCAUCCCACCACAUGAUGAUGCCUGAAGAGCAUUGGUUUUUUG [C13G G63C C70A C124A]	0.905
GACCAAUCUGCCGUCAGAGCUCGAGAACAUCUUCGGAUGCAGAGGAGGCAAGCUUCGGUGGCGCGAUAGCGCCAACGUCCUCAACCUCCAAUGCAUCCCACCACAUGAUGAUGCCUGAAGAGCCUUGGUUUUUUG [C13G G51A]	-4.69
GACCAAUCUGCCGUCAGAGCUCGAGAACAUCUUCGGAUGCAGAGGAGGCAGUCUUCGGUGGCGCGAUGGCGCCAACGUCCUCAACCUCCAAUGCAUCCCACCACAUGAUGCUGCCUGAAGAGCUUUGGUUUUCUG [C13G G52U A68G A111C C124U U133C]	-4.14
GACCAAUCUGCCGUCAGAGCUCGAGAACAUCUUCGGAUGCAGAGGAGGCAGGCUUCGGUGGCGCGAUACCGCCAACGUCCUCAACCUCCAAUGUAUCCCACCACAUGAUGAUGCUUGAAGAGCCUUGGUUUUUUA [C13G G69C C94U C115U G135A]	-3.43
GACCAAUCUGCCGUCAGAGCUCGAGAACAUCUUCGGAUGCAGAGGAGACAGGCUUCGGUGGCGCGAUAGCGCAAACGUCCUCAACCUCCAAUGCAUCCCACCACAUGAUGAUGCCUGAAGAGCCUUGGUUUUUUG [C13G G48A C73A]	-1.93
GACCAAUCUGCCGUCAGAGCUCGAGAACAUCUUCGGAUGCAGAGGAGGCAGUCUUCGGUGGCGCGAUAGCGCCAGCGUCCUCAACCUCCAAUGCAUCCCACCACAUGAUGAUGCCUGAAGAGCCUUGGUUUUUUG [C13G G52U A75G]	-3.6
GACCAAUCUGCCGUCAGAGCUCGAGAACAUCUUCGGAUGCAUAGGAGGCAGGCUUCGGUGGCGCGAUAGCGCCAACGUCCUCAACCUCCAAUGCAUCCCACCACAUGAUGAUGCCUGAAGAGCCUUGGUUUUUUG [C13G G42U]	-2.84
GACCAAUCUGCCGUCAGAGCUCGAGAACAUCUUCGGAUGCAGAGGAGGCAGGCUUCGGUGGCUCGAUAGCGCCAACGUCCUCAACCUCCAAUGCAUCCCACAACAUGAUGAUGCCUGAAGAGCCUUGGUUUUUUG [C13G G63U C102A]	-5.61
GACCAAUCUGCCGUCAGAGCUCGAGAACAUCUUCGGAUGCAGAGGAGGCAGGCUUCGGUGGCGCGAUAGCGCCAACGUCCUCAACCUCCAAUGCAUCCCACCACAUGAUGAUGCCUGAAGAGCGUAGGUUAUUUG [C13G C124G U126A U131A]	-0.0429
GACCAAUCUGCCGUCAGAGCUCGAGAACAUCUUCGGAUGCAGAGGAUGUAGGCUUCGGUGGCGCGAUAGCGCAAACGUCCUCAACCUCCAAUGCAUCCCACCACAUGAUGAUGCCUGAAGAGCCUUGGUUUUUUG [C13G G47U C49U C73A]	-3.52
GACCAAUCUGCCGUCAGAGCUCGAGAACAUCUUCGGAUGCAGAGGAGGCAGGCUUCGGUGGCGCGAUAGCGCUAACGCCCUCAACCUCCAAUGCAUCCCACCACAUGAUGAUGCCUGAAGCGCCUUGGUUUUUUG [C13G C73U U78C A121C]	-0.0893
GACCAAUCUGCCGUCAGAGCUCGAGAACAUCUUCGGAUGCAGAGGAGGCAUGCUUCGGUGGCGCGAUAGCGGCAACGUCCUCAACCUCCAAUGCAUCCCACCACAUGAUGCUGCCUGAAGAGCCUUGGUUUUUUG [C13G G51U C72G A111C]	-6.15
GACCAAUCUGCCGUCAGAGCUCGAGAACAUCUUCGGAUGCAGAGGAGGCAGGCUUCGGUGGCGCGAUAGCGCCAACGUCCUCAACCUCCAAUGCAUCCCACCAUAUGAUGAUGCCUGAAGAGCCUUGGUUUUUUG [C13G C104U]	-0.77
GACCAAUCUGCCGUCAGAGCUCGAGAACAUCUUCGGAUGCAGAGGAGUCAGGCUUCGGUGGCGCGAUAGCGCCAACGUCCUCAACCUCCAAUGCAUCCCACCACAUGAUGAUGCCUGAAGAGCCUUGGUUUUUUG [C13G G48U]	-2.21
GACCAAUCUGCCGUCAGAGCUCGAGAACAUCUUCGGAUGCAGAGGAGGCAGGCUUCGGUGGCGCGAUAGCGCCAACGUCCUCAAUCUCCAAUGCAUCCCACCACAUGAUGAUGCCUGAAGAGCCUUGGUUUUUUG [C13G C85U]	-2.91
GACCAAUCUGCCGUCAGAGCUCGAGAACAUCUUCGGAUGCAGAGGAGGCAGGCUUCGGUGGCGCGAUAACGCCAACGUCCUCAACCUCCAAUGCAUCCCACCACAUGAUGAUGCCUGAAGAGCCUUGGUUUAUUG [C13G G69A U132A]	-3.7
GACCAAUCUGCCGUCAGAGCUCGAGAACAUCUUCGGAUGCAGAGGAGGCAGGCUUCGGUGGCGCGAUAGCACCAACGUCCUCAACCUCCAAUGCAUCCCACCACAUGAUGAUGCCUGAAGAGCCUUGUUUUUUUG [C13G G71A G128U]	-4.42
GACCAAUCUGCCGUCAGAGCUCGAGAACAUCUUCGGAUGCAGAGGAGGCAGGCUUCGGUGGCGCGAUAGCGCCAACGUCCUCAACCUCCAAUGCAUCCCACCACAUGAUGAUGCCUGAAGAGCGUUGGUUUUUUG [C13G C124G]	0.288

Variant	polymerase ribozyme fitness (log ratio)
GACCAAUCUGCCGUCAGAGCUCGAGAACAUCUUCGGAUGCAGAGGAGGCAGGCUUCGGUGGCGCGAUAGCGCCAACGUCCUCAACCUCCAAUGCAUCCCACCACAUGAUGAUGCCUGAAGAGCAUUGGUUUUUUG [C13G C124A]	1.06
GACCAAUCUGCCGUCAGAGCUCGAGAACAUCUUCGGAUGCAGAGGAGGCACGCUUCGGUGGCGCGAUAGCGCCAACGUCCUCAACCUCCAAUGCAUCCCACCAUAUGAUGAUGCCUGAACAGCCUUGGUUUUUUG [C13G G51C C104U G120C]	-4.18
GACCAAUCUGCCGUCAGAGCUCGAGAACAUCUUCGGAUGCAGAGGAGGCAGGCUUCGGUGGUGCGAUAGCGCCAACGUCCUCAACCUCCAAUGCAUCCCCCCACAUGAUGACGCCUGAAGAGCCUUGGUUUUUUG [C13G C62U A100C U112C]	-1.47
GACCAAUCUGCCGUCAGAGCUCGAGAACAUCUUCGGAUGCAGAGGAGGCAGGCUUCGGUGGCGCGAUAGCGCCAACGUCCUCAACCUCCAAUGCAUCCCACCAUAUGAUGAUGCCUGAAGAGACGUGGUUUUUUG [C13G C104U C123A U125G]	0.46
GACCAAUCUGCCGUCAGAGCUCGAGAACAUCUUCGGAUGCAGAGGAAGCAGGCCUCGGUGGCGCGAUAGCGCCAACGUCCUCAACCUCCAAUGCAUCCCACCACAUGAUGAUGCCUGAAGAGCCUUGGUUUUUUG [C13G G47A U54C]	-2.54
GACCAAUCUGCCGUCAGAGCUCGAGAACAUCUUCGGAUGCAGAGGAGGCAGGCUUCGGUGGCGCGAUAGCGCCAACGUCCUAAACCUCCAAUGCAUCCCACAACAUGAUGAUGCCUGAAGAGCCUUGGUGUUUUG [C13G C82A C102A U130G]	-4.93
GACCAAUCUGCCGUCAGAGCUCGAGAACAUCUUCGGAUGCAGAGGAGGCAGGCUUCGGUGGCGCGAUAGCGCCAACGUCCUCAACCUACAAUGCAUCCCACCACAUGAUGAUGCCUGAAGAGCCUUGGUGUUUUG [C13G C88A U130G]	-3.24
GACCAAUCUGCCGUCAGAGCUCGAGAACAUCUUCGGAUGCAGAGGAGGCAGGCUUCGGUGGCGCGAUAGCGCCAACGUCCUCAACCUCCAAUGCAUCUCACCACAUGAUGAUGCCUGAAGAGCCUUGGUUUUUUG [C13G C98U]	-2.7
GACCAAUCUGCCGUCAGAGCUCUAGAACCUCUUCGGAUGCAGAGGAGGCAGGCUUCGGUGGCGCGAUAACGCCAACGUCCUCAACCUCCAAUGCAUACCACCACAUGAUGAGGCCUGAAGAGCCUGGGUUUUUUG [C13G G23U A29C G69A C97A U112G U126G]	-6.55
GACCAAUCUGCCGUCAGAGCUCGAGAACAUCUUCGGAUGCAGAGGAGGCAGGCUUCGGUGGCGCGAUAGCGUCAACGUCCUCAACCUCCAAUGCAUCCCACCACAUGAUGAUGCCUGAAGAGCCUUGGUUUUUUG [C13G C72U]	-1.8
GACCAAUCUGCCGUCAGAGCUCGAGAACAUCUUCGGAUGCAGAGUAGGCAGGCUUCGGUGGCGCGAUAGCGCCAACGUCCUUAACCUCCAAUGCAUCCCACCACAUGAUGAUACCUGAAGAGCCUUGGUUUUUUG [C13G G45U C82U G113A]	-2.94
GACCAAUCUGCCGUCAGAGCUCGAGAACAUCUUCGGAUGCAGAGGAGGCAGGCUUCGGUGGCGCGAUAGCGCCAACGUCCUCAACCUCCAAUGCAUCCCAACACAUGAUGAUGCCUGAAGAGCCUUGGUUUUUUG [C13G C101A]	-2.61
GACCAAUCUGCCGUCAGAGCUCGAGAACAUCUUCGGAUGCAGAGGAUGCAGGCUUCGGUGGCGCGAUAGCGCCAACGUCCUCAACCUCCAAUGCAUCCCACCACAUGAUGAUGCCUGAAGAGCCUUGGUUUUUUG [C13G G47U]	-3.12
GACCAAUCUGCCGUCAGAGCUCGAGAACAUCUUCGGAUGCAGAGGAGGCAGGCUUCGGUGGCGCGAUAGCGCCAACGUCCUCAACGUCCCAUGCGUCCCACCACAUGAUGAUGCCUGAAGAGCCUUGGUUUUUUG [C13G C86G A90C A95G]	-4.51
GACCAAUCUGCCGUCAGAGCUCGAGAACAUCUUCGGAUGCAUAGGAGGCAGGAUUCGGUGGCGCGAUAGCGCCAACGUCCUCAACCCUCAAUGCAUCCCACCACAUGAUGAUGCCUGAAGCGACUUGGUUUUUUG [C13G G42U C53A U87C C88U A121C C123A]	-0.648
GACCAAUCUGCCGUCAGAGCUCGAGAACAUCUUCGGAUGCAGAGGAGGCAGUCUUCGGUGGCGCGAUAGUGCCAACGUCCUCAACCUCCAAUGCAUCCCACCACAUGAUGAUGCCUGAAGAGACUUGGUUUUUUG [C13G G52U C70U C123A]	-1.13
GACCAAUCUGCCGUCAGAGCUCGAGAACAUCUUCGGAUGCAGAGGAGGCAGGCUUCGGUGGCGCGAUAGCGCCAACGUCCUCAACCUCCAAUGCAUCCCACCAAAUGAUUAUGCCUGAAGAGCCUUGGUUUUUUG [C13G C104A G110U]	-6.08
GACCAAUCUGCCGUCAGAGCUCGAGAACAUCUUCGGAUGCAGAGGAGGCAGGCUUCGGUGGCUCGAUAGCGCCAACGUCCUCAACCUCCAAUGCAUCCCACCACAUGAUGAUGCCUGAAGAGACUUGGUUUUUUG [C13G G63U C123A]	-0.659
GACCAAUCUGCCGUCAGAGCUCGAGAACAUCUUCGGAUGCAGAGGAGGCAGGCUUCGGUGGCGCGAUAACGCCAACGUCCUCAACCUCCAAUGCAUCCCACCACAUGAUGAUGCCUGAAGAGCCUUGGUUUUUUG [C13G G69A]	-3.66
GACCAAUCUGCCGUCAGAGCUCGAGAACAUCUUCGGAUGCAGAGGAGGCAGGCUUCGGUGGCGUGAUAGCGCCAACGUCCUCAACCUCCAAUGCAUCCCACCACAUGAUGAUGCCUGAAGAGCCUUGGUUUUUUG [C13G C64U]	-0.666
GACCAAUCUGCCGUCAGAGCUCGAGAACAUCUUCGGAUGCAGAGGAGUCAGGAUUCGGUGGCGCGAUAGCGCCAACGUCCUCAACCUCCAAUGCAUCCCACCACAUGAUGAUGCCUGAAGAGCCUUGGUUUUUUG [C13G G48U C53A]	-2.34
